The source of these data is patent US20210403565A1 (BIOATLA, published 2021).

The target in test [1] is T1, recombinant human CTLA4 extracellular domain (human, UniProt P16410 36-161).
T1 construct: extracellular domain; also called huCTLA-4
T1 sequence (looked up): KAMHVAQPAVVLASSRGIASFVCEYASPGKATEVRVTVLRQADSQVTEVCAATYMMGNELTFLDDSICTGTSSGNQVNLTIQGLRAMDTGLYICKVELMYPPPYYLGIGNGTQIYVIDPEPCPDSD
Put plainly: ELISA, immobilised huCTLA-4, table head pH 7.0 (text: pH 7.4), Jun. 29, 2017. For orientation: ELISA stands for enzyme-linked immunosorbent assay.

In test [2] the target is T1, recombinant human CTLA4 extracellular …. Put plainly: ELISA, wells coated with human CTLA4, assay pH 7.4; lot 6972 in His buffer, T2W; unit from the axis Log[ng/mL]. The procedure: (§1) Both ELISA and FACS analysis were used to measure the binding activity. […] The amount of bound antibodies was quantified using anti-human IgG antibody conjugated to HRP. The absorbance at 450 nm in each measurement was proportional to the amount of antibodies bound. […] EC50 value (in ng/mL) for binding to human CTLA4 was determined by absorbance at 450 nm against antibody concentration with Prism variable slope of four-parameter dose-response curve, which was calculated using the nonlinear fit (variable slope, four parameters) model built into GraphPad Prism software (version 7.03). The buffers tested included His buffer (His), Tris buffer (Tris), Glutamine buffer (Glu) and no buffer.

Test [3] shares this target. Put plainly: ELISA, wells coated with human CTLA4, assay pH 6.0; lot 6972 in Tris buffer, T0; unit from the axis Log[ng/mL]. The procedure:
as §1

Test [4] addresses T2, cynomolgus CTLA4 expressed on the cell surface of CHO cells (cynomolgus, UniProt G7PL88 36-223).
T2 construct: whole, on cells; also called CHO-cynoCTLA4
T2 sequence: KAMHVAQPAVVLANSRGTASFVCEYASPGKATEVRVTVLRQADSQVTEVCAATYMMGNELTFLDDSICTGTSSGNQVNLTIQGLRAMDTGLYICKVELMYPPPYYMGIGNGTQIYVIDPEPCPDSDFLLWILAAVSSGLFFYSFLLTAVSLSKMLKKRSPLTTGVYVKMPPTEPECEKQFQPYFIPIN
The test can be described thus: FACS, CHO cells expressing cynomolgus CTLA4 (CHO-cynoCTLA-4), pH 7.4, MFI; curve still rising at log 5 (about 600000 against about 1900000 for Ipilimumab), no plateau; no unit in the table, unit from the axis Log Antibodies [ng/ml]. The procedure:
The amount of antibodies bound on the cells was quantified using anti-human IgG antibody conjugated to fluorophores. EC₅₀ values at pH 6.0 and 7.4 for binding to cells were calculated using the nonlinear fit (variable slope, four parameters) model built into GraphPad Prism software (version 7.03). The expression levels of human CTLA4 or cynomolgus CTLA4 on the surface of the CHO cells were determined using a BD QuantiBRITE™ PE kit.
At least two independent duplicate FACS experiments were performed for each antibody using each of the cell lines. The binding activities at different concentrations of the antibodies are plotted in these figures.
On the technique in general: Flow cytometry measures light scatter and fluorescence of single cells or particles in a stream.

B1: BA-087-05-19 (antibody, V domains shown)
VH: EVQLVESGGGLVQPGGSLRLSCAASGFTFSHYTMHWVRQAPGKGLEWVSFISYDGNNKYYADSVKGRFTISRDNSKNTLYLQMNSLRAEDTAVYYCARTGWLGPFDYWGQGTLVTVSS
VL: AIQLTQSPSSLSASVGDRVTITCRASQYVGSSYLAWYLQKPGQSPQLLIYGAFSRATGIPARFSGSGSGTEFTLTISSLQSEDFAVYYCQQDGSSPWTFGQGTKVEIK
notes: Detected with anti-human IgG and a molecular weight of 146 kDa was used in SPR, so it was tested as a whole IgG; also called BA-087-05-019; BA-087-05-19 (# 6972)
As to B1, the EC50 (commonly the concentration giving half of the maximal effect) was determined as 0.0934 µg/mL in test [1], 0.0758 µg/mL in test [2], 0.00591 µg/mL in test [3] and 8.28 µg/mL in test [4].
